Reference: patent US8114412B2, “T. cruzi-derived neurotrophic agents and methods of use therefor” (priority 1999, dated 2012)
“Also recorded” adds a separate entry of the source.

Key:
PC12 cells = test: Neurite outgrowth assay in PC12 cells; assay type: cell-based, rat
From the text: PC12 cells were obtained from ATCC (Manassas, Va. (Accession No. CRL-1721)) and cultured on collagen-coated dishes in RPMI 1640 supplemented with 10% horse serum and 5% fetal bovine serum (Greene, L. A. and Tishler, A. S., Proc. Natl. Acad. Sci. USA, 73: 2424-2428 (1976)). For differentiation and survival experiments, cells were washed three times in serum-free RPMI/0.2% BSA, plated in the same medium in collagen-coated plastic dishes at 2×10^5/ml, without and with growth factors, TS, recombinant proteins, synthetic peptides, for the time and concentrations indicated in the Figures.
96-well microtiter plates were coated overnight at 4° C. with the TS or peptides or fragments thereof, or with control proteins laminin (Ln) or bovine serum albumin (BSA) at 500 μg/ml. After removing the compounds, the plates were further incubated with 1% BSA for 1 hour at room temperature and immediately used as substratum for PC12 or N18 (Prasad, K. N., Biol Rev Camb Philos Soc, 66:431-451 (1991)) cells in serum-free RPMI/0.2% BSA. Neurite outgrowth was measured using a phase-contrast microscope 17 hours later.

[1] = tested on: human intestinal microvascular endothelial cells (HIMEC); test: Other cytokines and chemokines in HIMEC supernatants (ELISA); assay type: cell-based; settings: 24 hrs; bacterial LPS 50 ng/ml
Experimental: (§1) Endothelial cells and T-24 cells were plated on 24-well plates at a density of 1×10^3 cells/well, while peripheral blood mononuclear cells (PBMC) were plated in the similar wells at 1×10^6/well. Triplicat cultures of cells were incubated test agents for a predetermined amount of time. […] Cytokines and chemokines released in the culture supernatants were measured by ELISA assay following the instructions of the manufacturer (Endogen). The cytokines tested were IL-1β, IL-4, IL-8, IL-10, IL-12, IFN-γ, TNF-α, and the chemokines RANTES and MCP-1. Negative controls were cells incubated in medium containing polymixin B at 10 μg/ml, and positive controls were cells incubated with bacterial LPS at the low ng/ml range (for PBMC or HIMEC) or in the μg/ml range for carcinoma T-24 cells. In some experiments, IL-1β, or TNFα were used as positive control for cytokine release.

[2] = tested on: human intestinal microvascular endothelial cells (HIMEC); test: IL-6 secretion by HIMEC (ELISA); assay type: cell-based
Experimental: Primary cultures of human intestinal microvascular endothelial cells (HIMEC) isolated from normal jejunal mucosa/submucosal tissue were prepared as described (Strong et al., Gastroenterology 114: 1244-1256 (1998)). The HIMEC were cultured in fibronectin-coated plasticware in MCDB medium (Sigma) supplemented with 20% FBS, 90 μg/ml heparin and 50 μg/ml endothelial cell growth factor (Sigma). T-24 cells (ATCC Accession No. HTB-4) were cultured in M199 medium supplemented with 10% FBS. PBMC were purified by Ficoll-Paque gradient as described (Current Protocols in Immunology, pp 7.1.1-7.1.2). Vero cells (ATCC Accession No. CCL-81) were grown in RPMI medium with 5% Nu serum and infected with the Silvio X-10/4 of T. cruzi as described previously (Chuenkova et al., J. Exp. Med. 181: 1693-1703, (1995)).
as §1

DS-1 B-lymphoma cells = test: Bioassay for IL-6 with IL-6 dependent DS-1 cells; assay type: cell-based, human; settings: conditioned media of PBMC or T-24 cells (TS 1 μg/ml, 24 hr) diluted into IL-6 free media; or TS 1 μg/ml directly
Experimental: Bioassay for IL-6 was performed using IL-6 dependent human DS-1 cells (Bock et al., Cytokine 5: 480-489 (1993), ATCC Accession No. CRL-11102). Briefly, 1×10^4 cells/well were plated in 96-well plates and incubated for 24 hrs in IL-6-free medium (10% FCS in RPMI) containing several dilutions of TS-conditioned media or exogenous rIL-6. The cultures were pulsed with 0.5 μCi ^3H-thymidine for 4 hrs and harvested to determine radioactivity incorporation using a microplate scintillation instrument (Packard). In some studies, a neutralizing anti-IL-6 rabbit IgG or normal rabbit IgG (Endogen) was added to the dilutions of TS-conditioned prior to assaying for growth-stimulation of DS-1 cells. TS conditioned media was prepared by incubating PBMC or T-24 cells for 24 hr in 10% FCS/RPMI without (CM) or with (TS/CM) TS at 1 μg/ml. Supernatants were centrifuged at 1,000×g to remove cell debris and were kept frozen at −20° C. until use.

Trans-sialidase assay = assay type: biochemical
Experimental: The trans-sialidase assay was performed as described (Scudder et al., J. Biol. Chem. 268:9886-9891 (1993)) with slight modifications. Various amounts of intact enzyme or enzyme fragments were added to 50 mM PBS, Ph 7.2, containing 15% fetal calf serum and […] of [^14C]N-acetyllactosamine (4×10^5 dpm), 50 μg BSA and 0.02% NaN3 in a volume of 60 μl. After incubation for a predetermined amount of time at room temperature, the reaction mixture was diluted to 1.0 ml with distilled water and applied to a column containing 1.0 ml Q-Sepharose equilibrated with water. Sialylated product was eluted with 1 M NaCi and quantified by scintillation counting.
TS enzymatic activity was measured by the sialylation of the acceptor ^14C-labeled N-acetyllactosamine on anion exchange resins (Scudder, P. et. al., J. Biol. Chem. 268:9886-9891 (1993)). Recombinant TSA-1, was expressed on insect sf9 cells and purified from serum-free medium by ion exchange chromatography (monoQ) and preparative SDS-PAGE (Wrightsman, R. A. et al., J. Immunol., 153:3148-3154 (1994).

Molecule | concentration range at which TS was active in neurite extension (PC12 cells) [nM] | time PC12 neurites remained extended (PC12 cells; after a single dose of TS) | time until PC12 neurites became visible (PC12 cells; after a single dose of TS) [h] | neurite outgrowth in PC12 cells (PC12 cells; neurite outgrowth assay, concentration not given) | neurite outgrowth in PC12 cells (PC12 cells; soluble in serum-free RPMI-1640/0.2% BSA, collagen coated dishes, 16 hours, NGF 0.1 μg/ml, VCNA 2.4 μg/ml, TS 1 μg/ml) | concentration of other cytokines (IL-1β, IL-4, IL-8, IL-10, IL-12, INF-γ, TNF-α, RANTES, MCP-1) in HIMEC supernatants [1] | IL-6 secretion by HIMEC ([2]; 24 hrs culture) | bacterial LPS concentration inducing the same quantity of IL-6 in HIMEC ([2]; TS 1 μg/ml) [ng/mL] | stimulation time for maximum IL-6 secretion in HIMEC ([2]; TS 1 μg/ml) [h] | proliferation/growth of IL-6-dependent DS-1 cells (DS-1 B-lymphoma cells) | trans-sialidase enzymatic activity (Trans-sialidase assay)
TS: T. cruzi trans-sialidase purified by immuno-affinity chromatography from supernatants of infected Vero cells (SEQ ID NO:2, SEQ ID NO:34) (protein, listed as Trypanosoma cruzi) MVAIADARYETSSENSLIDTVAKYSVDDGETWETQIAIKNSRVSSVSRVVDPTVIVKGNKLYVLVGSYYSSRSYWSSHGDARDWDILLAVGEVTKSTAGGKITASIKWGSPVSLKKFFPAEMEGMHTNQFLGGAGVAIVASNGNLVYPVQVTNKRKQVFSKIFYSEDDGKTWKFGKGRSDFGCSEPVALEWEGKLIINTRVDWKRRLVYESSDMEKPWVEAVGTVSRVWGPSPKSNQPGSQTSFTAVTIEGMRVMLFTHPLNFKGRCVRDRLNLWLTDNQRIYNVGQVSIGDENSAYSSVLYKDDKLYCLHEINTDEVYSLVFARLVGELRIIKSVLRSWKNWTATCPAFAPLLIQPLRRQRVVVVPLSPRLVLLAFCRQRLPKRMGGSYRCVNASTANAERVRNGLKFAGVGGGALWPVSQQGQNQRYRFANHAFTLVASVTIHEAPRAASPLLGASLDSSGGKKLLGLSYDEKHQWQPIYGSTPVTPTGSWETGKRYHLVLTMANKIGSVYIDGELLEGSGQTVVPDGRTPDISHFYVGGYKRSDMPTISHVTVNNVLLYNRRQLNTEEIRTLFLSQDLIGTEAHMDSSSDSSAHSTPSTPADSSAHSTPSTPVDSSAHSTPSTPADSSAHGTPSTPVDSSAHGTPSTPADSSAHGTPSTPVDSSAHSTPSTPVDSSAHSTPSTPVDSSAHGAPSTPADSSAHGTPSTPVDSSAHGTPSTPADSSAHSTPSTPADSSAHSTPSTPADSSAHSTPSTPVDSSAHGTPSTPADSSAHSTPSTPADSSAHGTPSTPVDSSAHSTPSTPVDSSAHGTPSTPVDSSAHSTPSTPVDSSAHGTPSTPVDSSAHSTPSTPADSSAHSTPSTPADSSAHGTPSTPVDSSAHSTPSTPADSSAHSTPSTPVDSSAHSTPSTPADSSAHGTPSTPVDSSAHGTPSTPADSSAHSTPSTPADSSAHSTPSTPADSSAHSTPSTPVDSSAHSTPSTPADSSAHSTPSTPADSSAHSTPSTPADSSAHSTPSTPVDSSAHSTPSTPADSSAHGTPSTPADSSAHSTPSTPVDSSAHSTPSTPADSSAHGTPSTPADSSAHSTPSTPADSSAHGTPSTPADSSAHSTPSTPAGSSANGTVLILPDGAALSTFSGGGLLLCACALLLHVFFMAVF | 0.125 | about 24 hours | 3 | induced neurite outgrowth | induces neurite outgrowth | did not increase | potently and specifically induced IL-6 secretion; also recorded: elevated in the conditioned supernatants in a manner dependent on the TS input | 50 | 24 | did not restore growth of the DS-1 cells; also recorded: did not induce proliferation | –
TS-F: recombinant full catalytic domain of TS, amino acid residues 33-666, His-tagged, expressed in E. coli (protein, listed as Trypanosoma cruzi, His tag, recombinant full catalytic domain of TS, amino acid residues 33-666, His-tagged, expressed in E. coli) ETQIAIKNSRVSSVSRVVDPTVIVKGNKLYVLVGSYYSSRSYWSSHGDARDWDILLAVGEVTKSTAGGKITASIKWGSPVSLKKFFPAEMEGMHTNQFLGGAGVAIVASNGNLVYPVQVTNKRKQVFSKIFYSEDDGKTWKFGKGRSDFGCSEPVALEWEGKLIINTRVDWKRRLVYESSDMEKPWVEAVGTVSRVWGPSPKSNQPGSQTSFTAVTIEGMRVMLFTHPLNFKGRCVRDRLNLWLTDNQRIYNVGQVSIGDENSAYSSVLYKDDKLYCLHEINTDEVYSLVFARLVGELRIIKSVLRSWKNWTATCPAFAPLLIQPLRRQRVVVVPLSPRLVLLAFCRQRLPKRMGGSYRCVNASTANAERVRNGLKFAGVGGGALWPVSQQGQNQRYRFANHAFTLVASVTIHEAPRAASPLLGASLDSSGGKKLLGLSYDEKHQWQPIYGSTPVTPTGSWETGKRYHLVLTMANKIGSVYIDGELLEGSGQTVVPDGRTPDISHFYVGGYKRSDMPTISHVTVNNVLLYNRRQLNTEEIRTLFLSQDLIGTEAHMDSSSDSSAHSTPSTPADSSAHSTPSTPVDSSAHSTPSTPADSSAHGTPSTPVDSSAHGTPSTPADSSAHGTPSTPVDS | – | – | – | – | – | – | – | – | – | – | enzymatically active
